The record followed here is PMC8644300.

The target of test [1] is K+ exchange antiporter 3 (KEA3), native KEA3.2 isoform (Arabidopsis thaliana (endogenous in Col-0)) (UniProt Q9M0Z3). The test is described as follows: native gel or EMSA; Blue Native PAGE of thylakoid membranes solubilized with 0.7% β-DM, blotted and detected with the antibody against the KEA3 C-terminus; native protein marker for size.
Test [2] has as its target recombinant KEA3 C-terminus (Arabidopsis thaliana). The test is described as follows: native gel or EMSA; native gel electrophoresis (without SDS) of the SEC fraction with the KEA3 C-terminus, in phosphate-buffered saline pH 8.
Test [3] shares this target. The test is described as follows: SEC; Superdex 200 Increase 10/300 GL, calibrated with low and high molecular weight kits; Ni-NTA eluate treated with 2 mM EDTA to remove residual Ni2+ before the run.

“K+ exchange antiporter 3 (KEA3), native KEA3.2 isoform (from UniProt Q9M0Z3-1 73-776) (natural protein)” returned a stoichiometry N in test [1] of 2.
Take “recombinant KEA3 C-terminus (domain or fragment)”: the stoichiometry N in test [2] and in test [3] was 2 throughout.
